Assay results published in patent US20140315251A1 (ZOETIS SERVICES, published 2014).

Assays:
[1] = target: T1, canine IL-31 with double alanine substitution (D82A, I85A) (canine); assay: Western blot of E. coli lysates
T1 construct: The -20N backbone is stated for the alanine scan and -20N was the control on this blot; also called double mutation
Excerpt: (§1) To examine the impact of multiple mutations in the region of IL-31 important for binding to the 11E12 and 34D03 antibodies, expression plasmids were constructed with double (D82A, […]) and triple (I81A, D82A, I85A) alanine substitutions. E. coli lysates expressing canine IL-31 with these double and triple mutations in addition to the −20N control were blotted with 11E12 and 34D03 antibodies (FIG. 16). It is apparent that these three amino acids on canine IL-31 are involved with recognition of 11E12 and 34D03 as complete abrogation of binding is observed when these sites are changed to alanine. These three amino acids correspond to amino acid residues 103, 104 and 107 of the canine IL-31 full-length protein sequence of SEQ ID NO: 32.

[2] = target: T2, canine IL-31 with triple alanine substitution (I81A, D82A, I85A) (canine); assay: Western blot of E. coli lysates
T2 construct: Positions count on the full-length E. coli construct; also called triple mutation
Excerpt: as §1

[3] = target: T3, feline IL-31 full-length construct for E. coli expression (feline); assay: Western blot of purified IL-31 proteins
T3 construct: Purified from E. coli under denaturing conditions and dialysed; also called feline IL-31 protein
T3 chain: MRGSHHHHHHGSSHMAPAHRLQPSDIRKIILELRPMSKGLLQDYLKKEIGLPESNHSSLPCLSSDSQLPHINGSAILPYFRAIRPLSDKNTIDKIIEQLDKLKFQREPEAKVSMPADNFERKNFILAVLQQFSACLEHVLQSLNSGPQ

[4] = target: T4, canine IL-31 full-length construct for E. coli expression (canine); assay: Western blot of purified IL-31 proteins
T4 construct: also called canine IL-31 (E. coli)
T4 chain: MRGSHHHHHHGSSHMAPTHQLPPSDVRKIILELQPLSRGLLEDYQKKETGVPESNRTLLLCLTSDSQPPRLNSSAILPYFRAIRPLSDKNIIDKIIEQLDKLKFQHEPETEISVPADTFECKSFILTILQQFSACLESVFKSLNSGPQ

pET101D-lacZ protein = target: T5, pET101D-lacZ protein (UniProt P00722 1-1024 = β-galactosidase, limits assumed); assay: Western blot of crude E. coli lysates
T5 construct: Control lane on the truncation blots; also called beta-galactosidase (lacZ)
Experimental: (§2) It was observed that the full length IL-31 protein was expressed very poorly. […] Antibodies 11E12 and 34D03 all bound to the −20N protein. Therefore, further work was carried out using this −20 N construct. Constructs representing C-terminal truncations at positions 20-122 (MW 15.3 with his tag), 20-100 (MW 12.9 with his tag), and 20-80 (MW 10.4 with his tag), were made to assess mAb binding to these areas on the IL-31 protein. The amino acid and nucleotide sequences corresponding to the 20-122 construct are SEQ ID NOs: 63 and 64, respectively. The amino acid and nucleotide sequences corresponding to the 20-100 construct are SEQ ID NOs: 65 and 66, respectively. The amino acid and nucleotide sequences corresponding to the 20-80 construct are SEQ ID NOs: 67 and 68, respectively. […] This region corresponds to amino acid Nos. between amino acid residues 102 and 122 of the canine IL-31 full-length protein sequence of SEQ ID NO: 32. […] In addition, the pET101D-lacZ protein was used as a control to confirm the lack of non-specific binding of mAbs to host proteins.

[5] = target: T6, canine IL-31 -20N construct (canine); assay: Western blot of crude E. coli lysates
T6 construct: Crude E. coli lysate on Western blot; also called N-terminal truncation -20N; -20N protein
Experimental: as §2

[6] = target: T7, canine IL-31 -40N construct (canine); assay: Western blot of crude E. coli lysates
T7 construct: Crude E. coli lysate on Western blot; also called N-terminal truncation -40N
Experimental: as §2

[7] = target: T8, canine IL-31 -60N construct (canine); assay: Western blot of crude E. coli lysates
T8 construct: Crude E. coli lysate on Western blot; also called N-terminal truncation -60N
Experimental: as §2

[8] = target: T9, canine IL-31 20-122 construct (canine); assay: Western blot of crude E. coli lysates
T9 construct: also called C-terminal truncation at positions 20-122
T9 chain: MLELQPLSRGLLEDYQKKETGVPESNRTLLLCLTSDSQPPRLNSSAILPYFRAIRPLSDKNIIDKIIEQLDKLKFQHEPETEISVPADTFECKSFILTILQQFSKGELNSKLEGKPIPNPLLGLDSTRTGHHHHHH
Experimental: as §2

[9] = target: T10, canine IL-31 20-80 construct (canine); assay: Western blot of crude E. coli lysates
T10 construct: The range counts on the full-length E. coli construct; also called C-terminal truncation at positions 20-80
T10 chain: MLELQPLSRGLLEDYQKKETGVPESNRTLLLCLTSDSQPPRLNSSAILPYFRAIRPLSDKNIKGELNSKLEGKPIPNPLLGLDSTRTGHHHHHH
Experimental: as §2

[10] = target: T11, canine IL-31 20-100 construct (canine); assay: Western blot of crude E. coli lysates
T11 construct: The range counts on the full-length E. coli construct; also called C-terminal truncation at positions 20-100
Experimental: as §2

[11] = target: T3, feline IL-31 full-length construct for …; assay: Western blot under reducing conditions, purified protein from mammalian and E. coli sources

T5 sequence (P00722 whole entry, the tested form may be a part): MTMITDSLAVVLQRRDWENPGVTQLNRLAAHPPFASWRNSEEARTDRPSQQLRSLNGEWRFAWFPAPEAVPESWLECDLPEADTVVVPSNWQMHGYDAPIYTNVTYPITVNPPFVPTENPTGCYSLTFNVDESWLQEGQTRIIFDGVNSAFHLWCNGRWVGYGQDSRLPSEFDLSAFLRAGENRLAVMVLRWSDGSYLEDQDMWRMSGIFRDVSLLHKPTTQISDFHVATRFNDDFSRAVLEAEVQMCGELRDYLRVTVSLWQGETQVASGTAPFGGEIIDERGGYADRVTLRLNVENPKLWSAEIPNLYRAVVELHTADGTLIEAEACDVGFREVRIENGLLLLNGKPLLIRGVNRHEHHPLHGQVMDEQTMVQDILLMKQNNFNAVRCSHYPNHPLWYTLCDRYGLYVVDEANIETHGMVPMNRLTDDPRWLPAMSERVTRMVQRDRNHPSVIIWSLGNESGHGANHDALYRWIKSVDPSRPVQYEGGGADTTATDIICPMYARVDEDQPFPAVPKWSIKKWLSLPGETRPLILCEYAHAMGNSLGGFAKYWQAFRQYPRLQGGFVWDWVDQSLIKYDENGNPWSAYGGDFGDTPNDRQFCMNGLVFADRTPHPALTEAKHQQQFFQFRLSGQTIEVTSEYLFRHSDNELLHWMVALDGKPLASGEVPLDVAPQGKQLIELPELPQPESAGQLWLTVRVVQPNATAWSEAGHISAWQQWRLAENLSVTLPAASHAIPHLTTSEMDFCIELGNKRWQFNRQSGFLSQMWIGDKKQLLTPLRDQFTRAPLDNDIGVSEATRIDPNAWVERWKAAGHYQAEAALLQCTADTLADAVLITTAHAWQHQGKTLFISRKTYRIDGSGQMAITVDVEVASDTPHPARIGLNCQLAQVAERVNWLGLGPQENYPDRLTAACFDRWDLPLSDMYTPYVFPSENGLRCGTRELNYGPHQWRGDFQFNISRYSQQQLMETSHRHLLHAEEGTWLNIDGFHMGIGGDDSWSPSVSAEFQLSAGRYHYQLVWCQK

Binder	binding result [1]	binding result [2]	binding result [3]	binding result [4]	binding result (pET101D-lacZ protein)	binding result [5]	binding result [6]	binding result [7]	binding result [8]	binding result [9]	binding result [10]	binding result [11]
Mouse 34D03 (antibody, V domains shown, Mouse hybridoma monoclonal; also called mAb 34D03; MU-34D03) VH: EVQLVESGGDLVKPGGSLKLSCAASGFSFSNYGMSWVRQTPDKRLEWVATISYGGSYTYYPDNIKGRFTISRDNAKNTLYLQMSSLKSEDTAMYYCVRGYGYDTMDYWGQGTSVTVSS VL: DILLTQSPASLAVSLGQRAIISCKASQSVSFAGTGLMHWYQQKPGQQPKLLIYRASNLEAGVPTRFSGSGSRTDFTLNIHPVEEEDAATYFCQQSREYPWTFGGGTKLEIK	no binding	no binding	binds	binds	no binding	binds	binds	binds	binds	no binding	binds	–
Mouse 11E12 (antibody, V domains shown, Mouse hybridoma monoclonal; also called mAb 11E12; MU-11E12) VH: QVQLQQSGAELVKPGASVKLSCKASGYTFKYYDINWVRQRPEQGLEWIGWIFPGDGGTKYNETFKGKATLTTDKSSSTAYMQLSRLTSEDSAVYFCARGGTSVIRDAMDYWGQGTSVTVSS VL: DIVLTQSPASLAVSLGQRATISCRASESVDNYGISFMHWYQQKPGQPPKLLIYRASNLESGIPARFSGSGSRTDFTLTINPVETDDVATYYCQQSNKDPLTFGAGTKLELK	–	–	binds	–	no binding	–	–	–	–	–	–	–
Felinized 34D03 (antibody, V domains shown, Produced from HEK cells; also called feline 34D03; felinized antibody 34D03) VH: DVQLVESGGDLVKPGGSLRLTCVASGFTYSNYGMSWVRQAPGKGLQWVATISYGGSYTYYPDNIKGRFTISRDNAKNTLYLQMNSLKTEDTATYYCVRGYGYDTMDYWGQGTLVTVSS VL: EIQMTQSPSSLSASPGDRVTITCKASQSVSFAGTGLMHWYQQKPGKVPKLLIYRASNLEAGVPSRFSGSGSGTDFTLTISSLEPEDAATYYCQQSREYPWTFGQGTKLEIKR	–	–	–	–	–	–	–	–	–	–	–	binds
